Assay results reported in publication PMC5717063.

What was measured:
[1] = molecular target: mammalian wild-type HSP60 purified from porcine liver (porcine); test: transmission electron microscopy; HSP60 alone, without nucleotide (Figure S1A)
[2] = molecular target: mammalian wild-type HSP60 purified from porcine liver (porcine); test: transmission electron microscopy; HSP60 alone with ATP; side views classified, over 100 molecules counted
[3] = molecular target: mammalian wild-type HSP60 purified from porcine liver (porcine); test: transmission electron microscopy; HSP60 alone with GTP; side views classified, over 100 molecules counted
[4] = molecular target: mammalian wild-type HSP60 purified from porcine liver (porcine); test: transmission electron microscopy; HSP60 with HSP10 and ATP; side views classified, over 100 molecules counted
[5] = molecular target: mammalian wild-type HSP60 purified from porcine liver (porcine)

**Q.** For “mammalian wild-type HSP60 purified from porcine liver (natural protein)”, which stoichiometry N [1] is on record?
**A.** 7

**Q.** And the percent of HSP60 as double-ring (HSP60 14) [2]?
**A.** 40%

**Q.** What about the stoichiometry N [2] of the same substance?
**A.** 14

**Q.** And the percent of HSP60 as double-ring [3]?
**A.** 20%

**Q.** What about the percent of HSP60 in double-ring structures [4] of the same substance?
**A.** 70%

**Q.** For “mammalian wild-type HSP10 purified from porcine liver (from UniProt F1SMZ6 1-102) (natural protein)”, which refolding yield of chemically denatured rhodanese by HSP60/HSP10 in the presence of GTP (recovery of enzymatic activity, 60 min) [5] is on record?
**A.** 40%
